Results taken from US20200399382A1 (ARGENX, published 2020).
Changes are numbered by the printed parent chain.

B1: h5MP90E7 human IL-5 mAb (antibody, V domains shown)
VH: EVQLVESGGGLVQPGGSLRLSCAASGFAFSSSFMSWVRQAPGKGLEWVSTINGNGGTYYADSMKGRFTISRDNVKSTVTLQMNSLKPEDTAVYYCAADWISGGYYFPALGYWGQGTQVTVSS
VL: SYELTQSPSVSVALRQTAKITCGGNNIGSKSAQWYQQKPGQAPVLVIYADSRRPSGIPERFSGSNSGNTATLTISGAQAEDEADYYCQVWDVSTNAAVFGGGTHLSVL
B2: h5MP90A9 human IL-5 mAb (antibody, V domains shown)
VH: B1 VH
VL: B1 VL with V10L, I20M, N26K, S62A, S66A, V92I, T94A, S106T
B3: h5MP90C8 human IL-5 mAb (antibody, V domains shown)
VH: B1 VH
VL: B1 VL with N25D, K38S, S51A, R52S, Q78R, V92T, S106T
B4: h5MP90D9 human IL-5 mAb (antibody, V domains shown)
VH: B1 VH
VL: B1 VL with K30L, A32T, S51N, P58H, S75G, V92N, T94A, A97L, S106T
B5: h5MP90G7 human IL-5 mAb (antibody, V domains shown)
VH: B1 VH
VL: B1 VL with S29R, V92S, T94A, S106T
B6: h5MP26H7 human IL-5 mAb (antibody, V domains shown)
VH: B1 VH
VL: SYELTQSPSVSVAQTQTAKITCGGDNIGSKSVQWYQQKPGQAPVLAIYADTRRPSGIPERFSGSNSGNTATLTITGAQAEDEADYYCQVWDTSTNVAVFGGGTRLTIL
B7: h4R3B2 human IL-4Rα mAb (antibody, V domains shown)
VH: QLQLVESGGGLVQPGGSLRLSCAASGFTFSSYDMTWVRQAPGKGLEWVSAINSGGGSTNYADSVKGRVTISRDNAKNTLYLQMNSLKPEDTAVYFCARALRTVVHDRRLFYIDSWGQGTQVTVSS
VL: SYELTQSPSVSVALRQTAKITCGGNNIGSKSAQWYQQKPGQAPVLVIYADSRRPSGIPERFSGSNSGNTATLTVSGAQAEDEADYYCQVWDTSAVVFGGGTRLTVL
notes: also called h4RMP3B2; 4RMP3B2
B8: h4R5D1 human IL-4Rα mAb (antibody, V domains shown)
VH: QLQLVESGGGLVQPGGSLRLSCAASGFTFSSYIMSWVRQAPGKGLEWVSGISSGGGITAYADSVKGRFTISRDNAKNTLYLQMNSLKPDDTAVYYCVAGLLRVEGYWGQGTQVTVSS
VL: QTVVTQEPSLSVSPGGTVTLTCGLSSGSVTSSNYPGWYQQTPGQAPRSLIYATASRHSGVPSRYSGSISGNKATLTITGAEPEDEADYYCALHKGTYVFGGGTKLTVL
notes: also called h4RMP5D1; 4RMP5D1
B9: h4R3D6 human IL-4Rα mAb (antibody, V domains shown)
VH: QVQLQESGGGLVQPGGSLRLSCAASGFTFSSYSLTWVRQAPGKGLEWVSTIKARGGTTLYADSVKDRFTISRDNAKNTLYLLMNSLKPEDTAVYYCAKPLYNNFAGDFGSWGQGTTVTVSS
VL: DIQMTQSPSSLSASLGDRVTITCQASQSISSYLAWYQQKPGQAPKLLIYGGSRLQTGVPSRFSGSGSGTSFTLTISGLETEDLATYYCLQDYSWPLTFGQGTKVELK
notes: also called 4RMP3D6
B10: 95G7hIgG1 (IL-5 antibody 5MP95G7 as human IgG1) (antibody, V domains shown)
VH: ELQVVESGGGLVQPGGSLRLSCAASGFTFSSYGMSWVRQAPGKGLEWVSTISRGGDSTSYADSVKGRFTISKDNAKNTLYLQMNSLEPEDTAVYYCANLGRLGFGRGQGTQVTVSS
VL: SYELTQPPSVSGSPGKTLTISCAGTSSDIGDWNYVSWFQQLPGTAPKLLISEVNKRASGIPDRFSGSKSGNTASLSISGLQSEDEADYYCTSYRSGNNWVFGGGTHLTVL
B11: 3D6wt Fab (parental 4RMP3D6 as Fab) (Fab, V domains shown)
VH: B9 VH
VL: B9 VL
notes: also called h4R3D6
B12: 152A07 Fab (variant of 4RMP3D6) (Fab, V domains shown)
VH: B9 VH with N102S, F104L, F108L
VL: B9 VL with V104L, L106I
notes: also called VH152A07
B13: 153E11 Fab (variant of 4RMP3D6) (Fab, V domains shown)
VH: B9 VH with D107H
VL: B9 VL with L89Q, V104L, L106I
notes: Fab from periplasmic extract, with CH1 and CK constant domains; also called VH153E11
B14: 153A11 Fab (variant of 4RMP3D6) (Fab, V domains shown)
VH: B9 VH with L82Q, N102S, F104L
VL: B9 VL with P40S, D91V, V104L, L106I
notes: Fab from periplasmic extract, with CH1 and CK constant domains; also called VH153A11
B15: 150A09 Fab (variant of 4RMP3D6) (Fab, V domains shown)
VH: B9 VH with A97V, N102S
VL: B9 VL with K45R, L89Q, V104L, L106I
notes: Fab from periplasmic extract, with CH1 and CK constant domains; also called VH150A09
B16: 152B10 Fab (variant of 4RMP3D6) (Fab, V domains shown)
VH: B9 VH with M83V, F104L
VL: B9 VL with T56A, S76G, L89Q, V104L, L106I
notes: Fab from periplasmic extract, with CH1 and CK constant domains; also called VH152B10

What follows are binders tested against T1, human IL-5 (human, UniProt P05113 20-134) (assay: cell-based or functional assay).
T1 sequence (looked up): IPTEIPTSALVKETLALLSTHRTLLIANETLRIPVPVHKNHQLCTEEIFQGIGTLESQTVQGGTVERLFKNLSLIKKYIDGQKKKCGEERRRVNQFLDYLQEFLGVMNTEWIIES

Binder	IC50 (pM), proliferation assay with hIL-5 (0.25 ng/mL)
B1	8.84 pM
B2	4.99 pM
B3	6.93 pM
B4	6.84 pM
B5	1.61 pM
B6	37.5 pM

Each binder was assayed against T2, human IL-4Rα on the cells of the hIL-4 proliferation assay (human, UniProt P24394 26-825) (assay: cell-based or functional assay).
T2 sequence (looked up): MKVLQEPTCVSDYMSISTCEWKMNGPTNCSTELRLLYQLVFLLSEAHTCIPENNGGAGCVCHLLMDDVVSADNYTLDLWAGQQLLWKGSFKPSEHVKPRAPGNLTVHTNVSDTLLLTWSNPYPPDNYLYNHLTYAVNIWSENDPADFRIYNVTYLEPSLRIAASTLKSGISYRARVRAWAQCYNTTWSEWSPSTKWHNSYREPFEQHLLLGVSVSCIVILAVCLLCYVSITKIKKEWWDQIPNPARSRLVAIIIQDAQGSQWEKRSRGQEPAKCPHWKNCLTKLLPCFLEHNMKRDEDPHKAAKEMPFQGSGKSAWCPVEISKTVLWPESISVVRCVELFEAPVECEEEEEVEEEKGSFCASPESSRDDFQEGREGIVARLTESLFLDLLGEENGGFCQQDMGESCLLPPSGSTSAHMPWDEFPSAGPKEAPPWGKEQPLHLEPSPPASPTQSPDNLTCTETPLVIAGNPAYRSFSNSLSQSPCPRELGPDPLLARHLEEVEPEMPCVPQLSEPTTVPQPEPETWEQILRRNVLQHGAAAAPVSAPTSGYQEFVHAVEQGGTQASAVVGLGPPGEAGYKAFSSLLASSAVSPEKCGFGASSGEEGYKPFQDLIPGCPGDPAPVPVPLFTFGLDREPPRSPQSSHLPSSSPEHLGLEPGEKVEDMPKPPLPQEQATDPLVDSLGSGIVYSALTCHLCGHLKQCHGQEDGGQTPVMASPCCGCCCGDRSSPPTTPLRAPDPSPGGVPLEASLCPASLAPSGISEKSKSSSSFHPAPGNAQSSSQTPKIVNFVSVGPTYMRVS

Binder	IC50 (nM), proliferation assay with hIL-4 (1.5 ng/mL)
B7	0.4 nM
B8	0.2 nM
B9	0.6 nM

These binders were tested against T3, mouse IL-5 (mouse, UniProt P04401 21-133) (assay: cell-based or functional assay).
T3 sequence (looked up): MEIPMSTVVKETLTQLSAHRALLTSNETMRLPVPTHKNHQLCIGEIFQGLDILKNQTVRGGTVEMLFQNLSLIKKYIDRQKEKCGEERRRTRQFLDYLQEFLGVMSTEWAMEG

Binder	EC50 (nM), inhibition of mIL-5-induced (0.25 ng/mL) proliferation of TF-1 cells
B10	1.86 nM

The binders below were run against T1, human IL-5 (assay: SPR as described in Example 2).

Binder	Kd
B1	0.129 nM
B2	0.0835 nM
B3	0.133 nM
B4	0.0264 nM
B5	0.113 nM
B6	0.0749 nM

These binders were tested against T4, human IL-4Rα (SPR target) (human, UniProt P24394 26-232, limits assumed) (assay: SPR as described in Example 2).
T4 construct: also called recombinant human IL-4Rα-Fc
T4 sequence (looked up): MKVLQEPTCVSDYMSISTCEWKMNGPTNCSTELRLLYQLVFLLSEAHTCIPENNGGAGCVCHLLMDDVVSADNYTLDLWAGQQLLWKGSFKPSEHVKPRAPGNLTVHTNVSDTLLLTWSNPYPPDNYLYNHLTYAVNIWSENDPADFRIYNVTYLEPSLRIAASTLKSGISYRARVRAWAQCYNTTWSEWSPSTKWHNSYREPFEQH

Binder	Kd
B7	0.0818 nM
B8	0.0442 nM
B9	0.0551 nM

The binders below were run against T5, cynomolgus recombinant IL-4Rα (cynomolgus (table head: cyno/rhesus), UniProt A0A2K5V556 26-232) (assay: SPR (Biacore 3000), periplasmic Fab over CM5 chip coated with cyno IL-4Rα).
T5 construct: Bought reagent; also called cyno/rhesus IL-4Rα; cyno IL-4Rα
T5 sequence: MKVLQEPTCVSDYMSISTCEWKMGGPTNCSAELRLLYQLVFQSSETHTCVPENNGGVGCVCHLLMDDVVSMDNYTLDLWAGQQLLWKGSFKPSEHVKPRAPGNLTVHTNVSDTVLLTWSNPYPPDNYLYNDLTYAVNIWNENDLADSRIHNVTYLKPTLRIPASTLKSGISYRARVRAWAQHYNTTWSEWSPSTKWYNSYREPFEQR
Source text: (§1) After 3 rounds of selection, clones were selected (from round 2 and 3), and Fab was produced from the periplasmic extracts and tested by SPR.

Binder	R0 (binding)	koff
B11	26	0.0017 s⁻¹
B12	94	0.0017 s⁻¹
B13	78	0.0014 s⁻¹
B14	146	0.00033 s⁻¹
B15	80	0.002 s⁻¹
B16	170	0.0026 s⁻¹

The binders below were run against T4, human IL-4Rα (SPR target) (assay: SPR (Biacore 3000), periplasmic Fab over CM5 chip coated with human IL-4Rα).
Source text: as §1

Binder	R0 (binding)	koff
B11	204	0.00053 s⁻¹
B12	58	0.00069 s⁻¹
B13	56	0.00043 s⁻¹
B14	68	0.002 s⁻¹
B15	53	0.00084 s⁻¹
B16	110	0.0012 s⁻¹
